# Target: T1, Zip2(499-704);Spo16 (Saccharomyces cerevisiae;Saccharomyces cerevisiae) (UniProt P53061+P17122)
# T1 sequence 1: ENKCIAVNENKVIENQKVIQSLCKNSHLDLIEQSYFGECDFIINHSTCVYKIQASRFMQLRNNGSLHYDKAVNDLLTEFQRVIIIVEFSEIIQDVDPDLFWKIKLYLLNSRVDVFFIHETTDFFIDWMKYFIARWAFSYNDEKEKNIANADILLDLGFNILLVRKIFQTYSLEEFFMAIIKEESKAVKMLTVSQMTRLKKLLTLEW
# T1 sequence 2: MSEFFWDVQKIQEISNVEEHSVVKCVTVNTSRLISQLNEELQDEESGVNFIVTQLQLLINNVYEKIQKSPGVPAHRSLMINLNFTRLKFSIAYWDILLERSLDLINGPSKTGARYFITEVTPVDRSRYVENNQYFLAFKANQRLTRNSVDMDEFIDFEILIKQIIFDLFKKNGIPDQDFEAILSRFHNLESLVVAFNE
# Assay: EMSA
substance,measurement,value
nicked Holliday Junction,Kd,5 µM

# From PMC6411835
